How the values were obtained:
GSDMD pores = target: T1, GSDMD pores (Homo sapiens, UniProt P57764); test: Free-standing planar lipid bilayer electrophysiology of reconstituted GSDMD pores; type: biochemical
T1 construct: His-SUMO (N, cleaved yes); made in house; host or cells: E. coli BL21
T1 sequence (P57764 1-275 limits assumed): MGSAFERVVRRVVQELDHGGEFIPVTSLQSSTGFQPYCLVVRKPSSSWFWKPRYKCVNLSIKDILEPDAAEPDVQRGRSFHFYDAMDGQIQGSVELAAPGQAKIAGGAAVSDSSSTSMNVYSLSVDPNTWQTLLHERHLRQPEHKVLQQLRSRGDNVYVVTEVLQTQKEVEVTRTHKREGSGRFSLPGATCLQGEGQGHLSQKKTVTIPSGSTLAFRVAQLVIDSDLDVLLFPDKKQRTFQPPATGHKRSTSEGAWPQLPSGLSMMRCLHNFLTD
Description: Protein Purification. Plasmid encoding the full length human GSDMD with a N-terminal His-SUMO tag was transformed into E. coli BL21 strain. The cultures were grown at 37° C. until OD600 0.8, and protein expression was induced with 0.2 mM isopropyl β-D-1-thiogalactopyranoside (IPTG) overnight at 20° C. The cells were harvested by centrifugation and the pellet was resuspended in 20 mM Tris buffer, pH 7.5, 50 mM NaCl, 5 mM imidazole, 20 mM MgCl2, 10 mM KCl, 0.5 mM TCEP, 0.1 mM protease inhibitor, and DNase I. After resuspension, cells were disrupted by high-pressure and centrifuged at 30,000 g at 4° C. for 1 hour. The supernatant was incubated for 2 hours at room temperature with pre-equilibrated Ni-NTA affinity resin (Thermo Scientific) and then passed through a column for gravity flow purification. The column was washed with 20 column volumes of resuspension buffer, and the fusion protein was eluted with three column volumes of the same buffer with 250 mM imidazole. SUMO-tag cleavage was achieved by addition of ULP1 protease to the solution and subsequent dialysis overnight at 4° C. against 20 mM Tris buffer, pH 7.5, 50 mM NaCl, 0.5 mM TCEP. GSDMD was eluted from a second round of purification through pre-equilibrated Ni-NTA affinity resin. The protein was further purified by HI-TRAP® Q ion-exchange resin and a SUPERDEX® 75 gel filtration column (GE Healthcare) pre-equilibrated with 20 mM Tris buffer, pH 7.5, 50 mM NaCl, 0.5 mM TCEP. The purified protein was concentrated to 20 mg/ml and frozen at −80° C.
Free-Standing Lipid Bilayer Formation and Electrophysiology. For the lipid bilayer, a bilayer chamber with a polystyrene cuvette was used. In addition, the folding method, which is based on Langmuir-Blodgett film formation (Kroemer et al. (2009) Cell Death Differ. 16:3-11; Weavers et al. (2016) Cell 165:1658-1671) was employed. Monolayers that were spread in the air-water interface were faced at the chamber hole (Bergsbaken & Fink (2009) Nat. Rev. Microbiol. 7:99-109; Mulvihill et al. (2018) EMBO J. 37 (14): e98321). In brief, a shallow trough made of polystyrene was filled with recording solution, and the surface was separated into two parts by one of the cuvette walls. Bilayers were formed by monolayers of 1:3 1-palmitoyl-2-oleoylphosphatidylethanolamine (POPE)/1-palmitoyl-2-oleoylphosphatidylcholine (POPC) (Avanti-lipids) in pentane; where appropriate, phosphoinositides of the indicated headgroup were introduced with di-oleoyl (18:1) fatty acid chains at 10% relative concentration. A small amount of phospholipid, dispersed in pentane solution, was dropped on one of the water surfaces and as pentane evaporated, the lipid molecules remained at the air-water interface. The movements of the lipid molecules became less vigorous, and eventually the lipid molecules packed together to form a monolayer. For the formation of the planar lipid bilayer by the folding method, a monolayer was formed at the air-water interface in each compartment. Upon raising the recording solution level by adding more solution, the monolayer ran up on the cuvette surface and passed through the hole, where the two monolayers from both sides encountered each other and formed a bilayer. The membrane formed by this method has been referred to as a “solvent-free” membrane. The advantage of this method over other methods, like the painting method, is the capacity to form an asymmetrical membrane in which the lipid composition of either leaflet is arbitrarily defined (Kayagaki et al. (2015) Nature 526: 666-671). Once formed, the membrane retains this asymmetry for a long time because the flip-flop or exchange of the lipid molecules between both leaflets of the membrane is very slow.
For incorporation of the GSDMD into the lipid bilayer, 2 μM of the purified GSDMD protein was added to the cis side chamber along with 2 μM of caspase 1. The specific membrane capacitance of the membrane formed by the folding method was 0.6-0.8 μF/cm^2. […]

living endothelial cells = test: Whole-cell patching after injection of activated recombinant GSDMD; type: cell-based; conditions: injection of activated protein, n=15
Text: To further address whether the calcium dynamics primarily reflected that of GSDMD pores, whole-cell patching was directly recorded in living endothelial cells, which also undergo pyroptosis. […] Additionally, as befitting a large pore, the GSDMD pore opening/closing dynamics were not restricted to calcium observations. Calcium flares were visualized, which occurred in coincidence with the transient flux of a large fluorogenic molecule, within the same spatiotemporal context in living cells.

mean current of single pores (GSDMD pores; POPE/POPC baseline bilayer): 32 pA | open probability (GSDMD pores; POPE/POPC baseline bilayer): ~0.2 | time to micro-currents (protein-membrane interaction) after protein introduction (GSDMD pores; POPE/POPC baseline bilayer, GSDMD + caspase-1, n=20 bilayers): 27.2 ± 2.7 min | ion selectivity of pores (GSDMD pores; ramp protocol, dual rectification): not inherently ion-selective
B1: GSDMD: purified recombinant full length human GSDMD, activated by caspase-1 (protein, UniProt P57764 1-484, looked up)
chain: MGSAFERVVRRVVQELDHGGEFIPVTSLQSSTGFQPYCLVVRKPSSSWFWKPRYKCVNLSIKDILEPDAAEPDVQRGRSFHFYDAMDGQIQGSVELAAPGQAKIAGGAAVSDSSSTSMNVYSLSVDPNTWQTLLHERHLRQPEHKVLQQLRSRGDNVYVVTEVLQTQKEVEVTRTHKREGSGRFSLPGATCLQGEGQGHLSQKKTVTIPSGSTLAFRVAQLVIDSDLDVLLFPDKKQRTFQPPATGHKRSTSEGAWPQLPSGLSMMRCLHNFLTDGVPAEGAFTEDFQGLRAEVETISKELELLDRELCQLLLEGLEGVLRDQLALRALEEALEQGQSLGPVEPLDGPAGAVLECLVLSSGMLVPELAIPVVYLLGALTMLSETQHKLLAEALESQTLLGPLELVGSLLEQSAPWQERSTMSLPPGLLGNSWGEGAPAWVLLDECGLELGEDTPHVCWEPQAQGRMCALYASLALLSGLSQEPH
modifications: full-length activated by caspase-1
single pore currents, whole-cell patching (living endothelial cells): showed single pore currents

From patent publication US20240262878A1, “PHOTOACTIVATABLE GASDERMIN PROTEINS” (THE BOARD OF TRUSTEES OF THE UNIVERSITY OF ILLINOIS, priority 2021, published 2024)
